Assay results from PMC10589233.

Target: human SLC15A4 of the SLC15A4/ALFA_Nanobody/C5 complex (cryo-EM sample) (human) (UniProt Q8N697)
Test: cryo-EM structure; purified SLC15A4/ALFA_Nanobody/C5 complex, 10 µM C5 in all buffers and 100 µM added to peak SEC fractions, 15 mg/ml; 2D averages showed dimeric and monomeric forms; the dimer resolved at 2.50 Å

stoichiometry N: 2
Substance: human SLC15A4 of the SLC15A4/ALFA_Nanobody/C5 complex (cryo-EM sample) (from UniProt Q8N697 1-577) (natural protein)
